T1: mouse CD39 (full length, on CHOK1-mCD39 cells) (mouse, UniProt P55772 1-510)
T1 construct: whole, on cells
T1 sequence (looked up): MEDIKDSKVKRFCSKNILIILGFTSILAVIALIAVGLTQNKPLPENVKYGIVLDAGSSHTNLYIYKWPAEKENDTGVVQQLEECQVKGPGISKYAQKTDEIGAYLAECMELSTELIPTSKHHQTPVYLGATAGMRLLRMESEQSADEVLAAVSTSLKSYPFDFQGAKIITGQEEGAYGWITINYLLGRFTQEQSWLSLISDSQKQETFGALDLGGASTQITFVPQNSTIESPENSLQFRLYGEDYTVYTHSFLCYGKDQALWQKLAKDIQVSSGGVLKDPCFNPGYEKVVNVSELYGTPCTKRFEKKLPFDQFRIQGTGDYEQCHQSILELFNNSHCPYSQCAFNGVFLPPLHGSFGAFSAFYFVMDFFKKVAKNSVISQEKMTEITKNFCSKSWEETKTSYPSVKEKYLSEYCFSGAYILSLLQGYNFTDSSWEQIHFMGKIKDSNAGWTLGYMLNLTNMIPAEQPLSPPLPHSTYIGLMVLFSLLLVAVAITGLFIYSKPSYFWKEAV

T2: KW27-20 (human CD39 mutant, C-terminal EGFP) (human, UniProt P49961 1-510)
T2 construct: expressed on HEK293F cells; not shown: C-terminal EGFP fusion (vector pCMV3-GFPSpark)
T2 chain: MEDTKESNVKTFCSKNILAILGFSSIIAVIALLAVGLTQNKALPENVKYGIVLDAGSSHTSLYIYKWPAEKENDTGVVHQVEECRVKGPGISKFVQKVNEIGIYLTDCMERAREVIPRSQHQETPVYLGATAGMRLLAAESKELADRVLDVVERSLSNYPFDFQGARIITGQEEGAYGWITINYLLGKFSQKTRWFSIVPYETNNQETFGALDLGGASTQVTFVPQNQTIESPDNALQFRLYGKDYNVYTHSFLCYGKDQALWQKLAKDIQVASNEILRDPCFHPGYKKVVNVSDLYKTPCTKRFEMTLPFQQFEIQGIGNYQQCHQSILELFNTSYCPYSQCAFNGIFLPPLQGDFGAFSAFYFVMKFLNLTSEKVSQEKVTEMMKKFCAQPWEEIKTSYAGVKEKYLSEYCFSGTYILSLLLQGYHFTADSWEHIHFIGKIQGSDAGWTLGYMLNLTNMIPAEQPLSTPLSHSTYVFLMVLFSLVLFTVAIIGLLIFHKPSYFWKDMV

T3: KW27-6 (human CD39 mutant, C-terminal EGFP) (human, UniProt P49961 1-510)
T3 construct: expressed on HEK293F cells; not shown: C-terminal EGFP fusion (vector pCMV3-GFPSpark)
T3 chain: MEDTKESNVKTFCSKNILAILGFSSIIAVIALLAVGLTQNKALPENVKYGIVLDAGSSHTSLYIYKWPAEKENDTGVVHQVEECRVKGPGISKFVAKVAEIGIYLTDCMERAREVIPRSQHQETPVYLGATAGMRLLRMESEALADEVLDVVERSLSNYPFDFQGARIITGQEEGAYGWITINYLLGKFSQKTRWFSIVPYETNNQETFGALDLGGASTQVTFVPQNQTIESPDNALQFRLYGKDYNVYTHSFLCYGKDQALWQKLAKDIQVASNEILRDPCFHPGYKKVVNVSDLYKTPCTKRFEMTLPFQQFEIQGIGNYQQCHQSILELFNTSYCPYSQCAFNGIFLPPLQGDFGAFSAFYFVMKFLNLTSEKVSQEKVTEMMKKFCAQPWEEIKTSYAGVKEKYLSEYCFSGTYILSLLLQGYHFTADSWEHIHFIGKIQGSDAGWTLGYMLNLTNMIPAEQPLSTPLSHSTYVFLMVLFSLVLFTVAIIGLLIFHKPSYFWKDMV


How the values were obtained:
[1] = target: T1, mouse CD39 (full length, on CHOK1-mCD39 …); assay: FACS, CHOK1-mCD39 cells
Description: FACS were used to determine binding of the antibodies to cell lines expressing CD39 naturally (SK-MEL-28) or recombinantly (CHOK1-hCD39, CHOK1-cynoCD39, and CHOK1-mCD39), or with cells lacking CD39 expression (CHOK1-blank) as a negative control.
CHOK1-hCD39, CHOK1-cCD39, CHOK1-mCD39 and CHOK1-blank cells were maintained in culture medium according to ATCC procedure. Cells were collected and re-suspended in blocking buffer at a density of 3×10⁶ cells/ml. Cells were transferred to 96 well FACS plates at 100 μl/well (3×10⁵ cells/well), the plates were centrifuged and washed twice with FACS buffer (PBS, 1% FBS, 0.05% Tween-20). 4-folds serial dilution of anti-CD39 antibodies were prepared in FACS buffer starting from 30 μg/ml. Reference antibody 9-8B and mouse/human control IgG were used as positive and negative controls, respectively. Cells were re-suspended in 100 μL/well diluted antibodies, and the plates were incubated at 4° C. for 60 min. […] The plates were washed with FACS buffer, and cells were re-suspended in 100 μL/well of PBS. Cells were then analyzed with FACSVerse™ and mean fluorescence intensity were determined. Full binding curves were generated on the CD39 expressing cells by testing a range of antibody concentrations. Apparent affinity was determined for each antibody using Prism software.

[2] = target: T2, KW27-20 (human CD39 mutant, C-terminal …); assay: FACS on transfected HEK293F cells, relative binding = AlexaFluor647 / GFP
Protocol: (§1) Briefly, the human CD39 mutants were generated by gene synthesis and then cloned into an expression vector pCMV3-GFPSpark. The vectors containing the validated mutated sequences were prepared and transfected into HEK293F cells. Three days post transfection, the cells were collected to testing EGFP for transgene expression. A range of dosages of antibodies (start from 100 nM, 3-folds dilution, 11 points) were tested on the 20 generated mutants and stained by AlexFluor647 labelled anti-hIgG by FACS. Antibody binding was descripted as relative binding which is derived from AlexFluor647 intensity divided by GFP intensity.

[3] = target: T3, KW27-6 (human CD39 mutant, C-terminal …); assay: as above
Protocol: as §1

Binder	binding result [1]	binding result [2]	binding result [3]
Antibody 9-8B (antibody, V domains shown) VH: QIQLVQSGPELKKPGETVKISCKASGYTFTHYGMNWVKQAPGKGLKWMGWINTYTGELTYADDFKGRFAFSLETSASTAYLQINNLKNEDTATYFCARRAYYRYDYVMDYWGQGTSVTVSS VL: DIVMTQSQKFMSTSVGDRVSVTCKASHNVGTNVAWYQQKPGQSPKALIYSASYRYSGVPGRFTGSGSGTDFTLTISNVQSEDLAEYFCHQYNNYPYTFGGGTKLEIK	no binding (tested: 30 µg/ml highest concentration)	binds	no binding
hu23.H5L5 (antibody, V domains shown, humanized c23) VH: QVQLVQSGAEVKKPGASVKVSCKASGYNLKDTFLHWVRQAPGQGLEWMGRIDPANGNIKYDPKFQGRVTITADTSANTAYMELISLRSEDTAVYYCANSPYYYGSGYRIFDVWGQGTTVTVSS VL: QIVLTQSPATLSLSPGERATLSCSAFSSVNYMHWYQQKPGQAPRLLIYTTSNLASGIPTRFSGSGSGTSYTLTISSLEPEDFAVYYCQQRSTYPFTFGQGTKLEIK	–	–	no binding
mAb14 (antibody, V domains shown, mouse hybridoma antibody) VH: EVKLEESGGGLVQPGGSMKLSCVASGFTFSKYWMNWVRQSPEKGLEWVAEIRLKSNKYGTHYAESVKGRFTISRDDSKNNVYLQMNNLRPEDTGIYYCTTQLDLYWFFDVWGAGTTVTVSS VL: DIVMTQSPAILSVTPGDRVSLSCRASQSISDYLHWYQQKSHESPRLLIKYASQSISGIPSRFSGSGSGSNFTLSINSVEPEDVGVYFCQNGHSLPLTFGAGTKLELR	no binding (tested: 30 µg/ml highest concentration)	–	–
Antibody T895 (antibody, V domains shown, also called 31895) VH: EVQLQQSGPELVKPGASVKMSCKASGYTFTDYNMHWVKQSHGRTLEWIGYIVPLNGGSTFNQKFKGRATLTVNTSSRTAYMELRSLTSEDSAAYYCARGGTRFAYWGQGTLVTVSA VL: not shown	–	no binding	binds
c34 (antibody, V domains shown, its making is not described; also called chimeric antibody c34) VH: EIQVQQSGPELVKPGASVKVSCKASGYSFTDYNMYWVKQSHGKSLEWIGFIDPYNGYTSYNQKFKGKATLTIDKSSSTAFMHLNSLTSEDSAVYYCAIYGYDDAYYFDYWGQGTTLTVSS VL: QIVLTQSPAIMSASPGEKVTITCSATSSVSYMHWFRQKPGTSPKLWIYSTSNLASGVPARFSGSGSGTSYSLTISRMAAEDAATYYCQQRITYPFTFGSGTKLEIT	–	binds	binds
c35 (antibody, V domains shown, its making is not described; also called chimeric antibody c35) VH: EVRLQQSGAELVKPGASVKLSCTASGFNIEDTYVHWMKQRPEQGLEWIGRIDPAIDNSKYDPKFQGKATITAVSSSNTAYLQLSSLTSEDTAVYYCALYDGYNVYAMDYWGQGTSVTVSS VL: DIVMTQAAFSNPVTLGTSASISCRSSKNLLHSNGITYLYWYLQRPGQSPQLLIYRASTLASGVPNRFSGSESGTDFTLRISRVEAEDVGVYYCAQLLELPHTFGGGTKLEIK	–	binds	binds

From patent US20210388105A1 (ELPISCIENCE SUZHOU BIOPHARMA, published 2021)
